Assay [1] addresses human tenascin-C (human) (UniProt P24821). Put plainly: BIAcore. For orientation: In SPR one partner is held on a chip, and binding of the other changes the refractive index at the surface.
The target is the same in assay [2]. Put plainly: ELISA, tenascin 5 µg/ml. (In an ELISA, binding on a coated surface is turned into a signal by an enzyme label.)

human tenascin-C (human), sequence (P24821 23-2201 limits assumed): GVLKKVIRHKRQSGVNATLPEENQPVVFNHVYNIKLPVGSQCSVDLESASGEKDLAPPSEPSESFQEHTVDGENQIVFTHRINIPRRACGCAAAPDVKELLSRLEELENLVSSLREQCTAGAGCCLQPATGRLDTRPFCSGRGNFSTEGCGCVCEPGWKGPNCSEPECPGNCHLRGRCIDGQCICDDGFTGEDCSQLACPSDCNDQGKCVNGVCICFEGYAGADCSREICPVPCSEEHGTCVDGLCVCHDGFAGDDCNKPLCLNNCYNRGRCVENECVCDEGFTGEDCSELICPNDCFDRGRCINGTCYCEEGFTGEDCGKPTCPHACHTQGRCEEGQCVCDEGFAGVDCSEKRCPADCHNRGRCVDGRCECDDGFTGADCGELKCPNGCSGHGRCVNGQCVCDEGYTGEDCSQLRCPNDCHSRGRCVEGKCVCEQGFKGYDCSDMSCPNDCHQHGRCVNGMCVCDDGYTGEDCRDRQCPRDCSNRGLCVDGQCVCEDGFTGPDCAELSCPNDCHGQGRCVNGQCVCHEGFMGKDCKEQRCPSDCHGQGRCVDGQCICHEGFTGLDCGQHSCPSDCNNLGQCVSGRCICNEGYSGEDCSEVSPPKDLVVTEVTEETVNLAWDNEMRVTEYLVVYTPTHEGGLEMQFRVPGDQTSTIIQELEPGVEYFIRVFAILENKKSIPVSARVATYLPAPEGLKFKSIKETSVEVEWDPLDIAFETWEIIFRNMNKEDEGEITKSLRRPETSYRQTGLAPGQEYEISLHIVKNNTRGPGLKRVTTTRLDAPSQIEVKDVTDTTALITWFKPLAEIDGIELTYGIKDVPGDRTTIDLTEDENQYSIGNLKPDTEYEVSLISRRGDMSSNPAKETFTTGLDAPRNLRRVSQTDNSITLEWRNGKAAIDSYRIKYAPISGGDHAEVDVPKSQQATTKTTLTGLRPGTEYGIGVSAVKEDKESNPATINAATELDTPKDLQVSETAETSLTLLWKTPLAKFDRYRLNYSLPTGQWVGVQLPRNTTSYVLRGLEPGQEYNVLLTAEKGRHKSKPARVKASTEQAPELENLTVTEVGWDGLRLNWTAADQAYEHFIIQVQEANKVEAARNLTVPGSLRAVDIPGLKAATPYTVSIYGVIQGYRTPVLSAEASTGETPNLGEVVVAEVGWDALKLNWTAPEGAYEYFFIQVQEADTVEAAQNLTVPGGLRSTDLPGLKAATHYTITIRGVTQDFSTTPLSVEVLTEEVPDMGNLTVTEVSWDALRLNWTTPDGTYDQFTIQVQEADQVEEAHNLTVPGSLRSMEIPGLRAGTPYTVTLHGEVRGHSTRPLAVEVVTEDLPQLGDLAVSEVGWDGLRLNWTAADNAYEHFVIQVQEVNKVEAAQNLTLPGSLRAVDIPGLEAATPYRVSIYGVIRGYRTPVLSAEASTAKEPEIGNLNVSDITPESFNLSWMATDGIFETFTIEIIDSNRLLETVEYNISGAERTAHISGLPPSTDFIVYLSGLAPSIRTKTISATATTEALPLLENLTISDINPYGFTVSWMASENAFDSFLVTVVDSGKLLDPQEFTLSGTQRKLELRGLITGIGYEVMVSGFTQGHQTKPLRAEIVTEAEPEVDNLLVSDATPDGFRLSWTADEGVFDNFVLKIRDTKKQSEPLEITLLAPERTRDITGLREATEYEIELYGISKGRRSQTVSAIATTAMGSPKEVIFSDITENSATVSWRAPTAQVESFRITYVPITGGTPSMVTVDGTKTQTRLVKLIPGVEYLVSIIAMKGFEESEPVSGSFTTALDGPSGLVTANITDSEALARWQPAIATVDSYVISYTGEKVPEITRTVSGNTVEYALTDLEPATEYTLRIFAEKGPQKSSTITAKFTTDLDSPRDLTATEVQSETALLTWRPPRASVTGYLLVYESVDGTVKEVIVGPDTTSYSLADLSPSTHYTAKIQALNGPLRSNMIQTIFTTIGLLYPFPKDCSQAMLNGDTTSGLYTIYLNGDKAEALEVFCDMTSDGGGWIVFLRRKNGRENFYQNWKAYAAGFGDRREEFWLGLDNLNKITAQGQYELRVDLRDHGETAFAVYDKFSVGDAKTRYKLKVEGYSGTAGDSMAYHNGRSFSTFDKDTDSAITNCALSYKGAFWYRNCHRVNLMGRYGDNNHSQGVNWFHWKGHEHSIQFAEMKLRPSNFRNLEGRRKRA

As to BC4 anti-tenascin monoclonal antibody, the Kd in assay [1] is 4.9 nM. The EC50 (read off the curve) in assay [2] was 0.2 µg/mL.

By Kd is commonly meant the constant that tells how readily two partners part at equilibrium. A lower Kd goes with higher affinity. One may read the EC50 (read off the curve) as the concentration giving half of the maximal effect.
